Measured values reported in article PMC5995894.

Tested on: spDnmt2 (Schizosaccharomyces pombe)
Test: fluorescence polarization
Conditions: binding buffer, salt, pH and temperature not given in the material (methods section text missing)

Row | Substance | Kd | Kd (queuosine at position 34 (queuine enzymatically incorporated by human TGT))
1 | G34 tRNAAsp (unmodified) | 960 nM | –
2 | Q34 tRNAAsp | – | 670 nM
